Results taken from patent US20160280799A1 (Ablynx, published 2016).

T1: active catalytic domain of MMP 1 (UniProt P03956 100-269)
T1 construct: domain: catalytic domain
T1 sequence (looked up): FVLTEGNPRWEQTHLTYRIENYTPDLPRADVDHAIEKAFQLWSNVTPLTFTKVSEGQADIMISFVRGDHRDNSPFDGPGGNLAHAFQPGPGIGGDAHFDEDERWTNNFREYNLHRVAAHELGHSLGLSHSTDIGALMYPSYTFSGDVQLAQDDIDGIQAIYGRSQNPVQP

T2: active catalytic domain of MMP 7 (UniProt P09237 95-267)
T2 construct: domain: catalytic domain
T2 sequence (looked up): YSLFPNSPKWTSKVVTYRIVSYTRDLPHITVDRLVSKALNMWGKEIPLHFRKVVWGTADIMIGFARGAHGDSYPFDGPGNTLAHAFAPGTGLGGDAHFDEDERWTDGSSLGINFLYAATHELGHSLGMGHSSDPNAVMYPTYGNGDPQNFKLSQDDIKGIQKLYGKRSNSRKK

B1: EGFR-IIIa5 (VHH)
VHH: EVQLVESGGGLVQAGGSLRLSCTASGRTFSSYAMGWFRQTPGKEREFVAAITSSGGSTYYADSVKGRFTISRDNAKSTMYLQMDSLMLDDTSVYYCAADSSRPQYSDSALRRILSLSNSYPYWGQGTQVTVSS
B2: MMP-12 P5-29 (VHH)
VHH: QVQLQESGGGLVQAGGSLRLSCAASGRTFTVYTTGWFRQAPGKEREFVAAIDWSGSSTYYTDSVKGRFTISRDNTKNTVYLQMNSLKPEDTAVYYCAARDAIVGVTDTSGYRYWGQGTQVTVSS
notes: also called clone P5-29
B3: MMP-12 P1-44 (VHH)
VHH: QVQLQESGGGLVQPGGSLRLSCAASGFTFNNHWLYWVRQAQGKGLEWVSAINPGGSTVYLDSVKGRFTISRGNTKNTLYLQMNSLKSEDTAVYYCTKAMAWATDWDEYDLWGQGTQVTVSS
B4: MMP-12 P1-26 (VHH)
VHH: QVQLQESGGGLVRAGGSLRLSCVASGRTLSKYRMGWFRQFPGKERELVAEIEWKSSSTWYRDSVKGRFTISRDNAKNTVYLRMNSLKPEDTAVYYCAAATLGEPLVKYTYWGQGTQVTVSS
B5: VHH#3E-His tag (VHH)
VHH: QVQLQESGGGLVQPGGSLRLSCAASGRTFSDHSGYTYTIGWFRQAPKEREFVARIYWSSGNTYYADSVKGRFAISRDIAKNTVDLTMNNLEPEDTAVYYCAARDGIPTSRSVESYNYWGQGTQVTVSS
notes: also called TNF3E; VHH TNF3E
B6: EGFR-1.38 (VHH)
VHH: QVQLQDSGGGLVQAGDSLRLSCAASGRSFGGYAMGWFRQAPGKEREFVAAISWSGGSTYYADSLKGRFTISRDNAKNTVYLQMNSLKPEDTALYYCAAGLRPSPNYNHERSYDYWGQGTQVTVSS
B7: EGFR-B11 (VHH)
VHH: QVQLQDSGGGLVQAGGSLRLSCAASRFSSAQYAIGWFRQAPGKEREGVSYITFSGGPTGYADSVKGRFTVSRDNAKNTVYLQMNSLKPEDTAVYYCAARPYTRPGSMWVSSLYDNWGQGTQVTVSS
B8: MMP-12 P1-1 (VHH)
VHH: QVQLQESGGGLVQPGGSLRLSCVASGFTFSDYPMAWVRQAPGKGLEWISVINSGGVNTSYAASVKGRFTISRDNAKNTLFLQMNSLKPEDTAVYYCAKYSLKNEQYWRGQGTQVTVSS
B9: MMP-12 P1-41 (VHH)
VHH: QVQLQDSGGGLVRTGDSLRLSCVVFGGTISTYAMGWFRRAPGKEREFVAAIDASGGFTEYADSVRGRFRIARDNPLSAVYLQMNSLKPEDTAFYYCAADKDRDTVVRFTTTPNEYDYWGQGTQVTVSS
B10: EGFR-4.21 (VHH)
VHH: EVQLVESGGGLVQAGGSLRLSCAVSGRTFSSMGWFRQAPGKEREFVATINLSGDRTDYADSVKGRFTISRDNPKNTVYLQMDSLEPEDSAVYYCAGTSLYPSNLRYYTLPGTYADWGQGTQVTVSS
B11: EGFR-F11 (VHH)
VHH: QVQLQESGGRLVQAGGSLRLSCAASEHTFRGYAIGWFRQAPGKEREFVSSITYDGTLTNYADSVTGRFTISRDNAKNTVYLQMNSLKPEDTAVYVCAAGYSYRYTTLNQYDSWGQGTQVTVSS

Columns and labels:
[1] = molecular target: T3, human EGFR on cells (Her-14 mouse fibroblasts expressing human EGFR; A431 cells) (human, UniProt P00533 25-1210); test: phage ELISA on Her-14 cells (mouse fibroblasts expressing human EGFR) against parental 3T3 cells, about 10^9 phage particles, anti-M13 gpVIII-HRP, OD 405nm
T3 construct: whole, on cells; also called EGF receptor

[2] = molecular target: T4, human MMP-12 catalytic domain (human, UniProt P39900 106-263); test: binding implied by inhibition in the colorimetric MMP-12 assay; selected on active MMP-12 on nitrocellulose
T4 construct: domain: catalytic domain; also called recombinant human catalytic domain of MMP12; human macrophage elastase
T4 sequence (P39900 106-263 limits assumed): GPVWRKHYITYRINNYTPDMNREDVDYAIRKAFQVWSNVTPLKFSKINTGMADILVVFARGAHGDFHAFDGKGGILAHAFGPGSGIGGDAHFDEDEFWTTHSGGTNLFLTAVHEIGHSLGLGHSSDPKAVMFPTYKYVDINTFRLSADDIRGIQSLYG

[3] = molecular target: T5, active catalytic domain of MMP 9 (UniProt P14780 107-444); test: dot blot: periplasmic extract on 50 ng catalytic domain immobilized on Hybond C-extra, anti-c-myc detection
T5 construct: domain: catalytic domain
T5 sequence (P14780 107-444 limits assumed): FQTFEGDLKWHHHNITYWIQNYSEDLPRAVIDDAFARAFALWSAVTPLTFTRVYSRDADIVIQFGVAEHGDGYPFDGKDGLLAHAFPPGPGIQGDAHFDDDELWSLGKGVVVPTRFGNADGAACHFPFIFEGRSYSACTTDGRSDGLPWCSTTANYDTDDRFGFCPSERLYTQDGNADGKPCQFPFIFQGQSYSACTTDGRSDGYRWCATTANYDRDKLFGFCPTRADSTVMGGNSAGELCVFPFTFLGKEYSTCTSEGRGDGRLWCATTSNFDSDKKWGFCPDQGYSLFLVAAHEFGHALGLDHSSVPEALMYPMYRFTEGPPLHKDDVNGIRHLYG

[4] = molecular target: T6, active catalytic domain of MMP 2 (UniProt P08253 110-450); test: as above
T6 construct: domain: catalytic domain
T6 sequence (P08253 110-450 limits assumed): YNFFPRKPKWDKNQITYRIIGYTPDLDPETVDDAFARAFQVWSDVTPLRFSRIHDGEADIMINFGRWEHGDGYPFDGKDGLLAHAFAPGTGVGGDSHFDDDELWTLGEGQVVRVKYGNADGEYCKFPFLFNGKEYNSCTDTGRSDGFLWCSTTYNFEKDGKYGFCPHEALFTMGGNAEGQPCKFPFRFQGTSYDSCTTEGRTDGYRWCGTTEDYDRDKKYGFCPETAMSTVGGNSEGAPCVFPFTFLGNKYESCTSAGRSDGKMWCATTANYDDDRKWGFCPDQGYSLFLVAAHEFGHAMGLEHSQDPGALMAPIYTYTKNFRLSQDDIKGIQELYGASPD

[5] = molecular target: T1, active catalytic domain of MMP 1; test: as above
[6] = molecular target: active catalytic domain of MMP 13 (UniProt P45452 104-274); test: as above
[7] = molecular target: T7, active catalytic domain of MMP 3 (UniProt P08254 100-272); test: as above
T7 construct: domain: catalytic domain
T7 sequence (P08254 100-272 limits assumed): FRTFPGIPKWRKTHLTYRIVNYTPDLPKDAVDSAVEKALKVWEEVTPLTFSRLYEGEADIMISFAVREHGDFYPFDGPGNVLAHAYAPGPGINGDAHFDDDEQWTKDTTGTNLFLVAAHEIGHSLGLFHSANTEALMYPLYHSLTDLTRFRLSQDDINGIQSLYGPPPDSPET

[8] = molecular target: T2, active catalytic domain of MMP 7; test: as above
[9] = molecular target: T4, human MMP-12 catalytic domain; test: dot blot: periplasmic extract on 50 ng human MMP-12 catalytic domain on PVDF membrane, anti-c-myc detection
human TNF-alpha [10] = molecular target: T8, human TNF-alpha (human, UniProt P01375 77-233); test: ELISA: biotinylated TNFα captured on neutravidin, detection R42; sample treated with pepsin for 60 min at pH 3
T8 construct: also called TNFα; biotinylated TNF-alpha
T8 sequence (P01375 77-233 limits assumed): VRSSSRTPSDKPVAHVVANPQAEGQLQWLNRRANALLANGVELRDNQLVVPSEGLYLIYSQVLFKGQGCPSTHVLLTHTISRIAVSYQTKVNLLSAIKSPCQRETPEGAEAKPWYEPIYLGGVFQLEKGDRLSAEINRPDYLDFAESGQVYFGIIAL

human TNF-alpha [11] = molecular target: T8, human TNF-alpha; test: ELISA: biotinylated TNFα captured on neutravidin, detection R42; sample treated with pepsin for 60 min at pH 4
human TNF-alpha [12] = molecular target: T8, human TNF-alpha; test: ELISA: biotinylated TNFα captured on neutravidin, detection R42; sample treated with pepsin for 60 min at pH 2
human TNF-alpha [13] = molecular target: T8, human TNF-alpha; test: ELISA: biotinylated TNFα captured on neutravidin, detection R42

Row | Binder | binding result [1] | binding result [3] | binding result [4] | binding result [5] | binding result [6] | binding result [7] | binding result [8] | binding result [9] | other results
1 | B1 | binds | – | – | – | – | – | – | – | –
2 | B2 | – | – | – | – | – | – | – | – | binding result [2]: binds
3 | B3 | – | no binding | no binding | no binding | no binding | no binding | no binding | binds | –
4 | B4 | – | no binding | no binding | no binding | no binding | no binding | no binding | binds | –
5 | B5 | – | – | – | – | – | – | – | – | EC50 (read off the curve) (human TNF-alpha [10]): ~0.01 µg/mL; EC50 (read off the curve) (human TNF-alpha [11]): ~0.009 µg/mL; EC50 (read off the curve) (human TNF-alpha [12]): ~0.03 µg/mL; EC50 (read off the curve) (human TNF-alpha [13]): ~0.02 µg/mL
6 | B6 | binds | – | – | – | – | – | – | – | –
7 | B7 | binds | – | – | – | – | – | – | – | –
8 | B8 | – | no binding | no binding | no binding | no binding | no binding | no binding | binds | –
9 | B9 | – | no binding | no binding | no binding | no binding | no binding | no binding | binds | –
10 | B10 | binds | – | – | – | – | – | – | – | –
11 | B11 | binds | – | – | – | – | – | – | – | –
